Results: patent US20220033484A1 (FAPON BIOTECH, published 2022)
Numbering of substitutions follows the chain as printed. Values belong to the binder of their own block, whether it stands above or below them.

Biological target: T1, cTnI quality control product recombinant protein (human, UniProt P19429 2-210, limits assumed)
T1 construct: treated as the same molecule; also called cTnI antigen; cardiac troponin I
Assay: AMC sensor, antibody immobilised, cTnI in solution
Description: Operating process: it is equilibrated in Buffer 1 (PBST) for 60 s, the antibody is immobilized in an antibody solution for 300 s, incubated in Buffer 2 (PBST) for 180 s, bound in antigen solution for 420 s, dissociated in the Buffer 2 for 1200 s, 10 mM of GLY solution with pH 1.69 and Buffer 3 are used for sensor regeneration, and data is output. KD represents an equilibrium dissociation constant, namely the affinity; Kon represents a binding rate; and Kd is represents a dissociation rate.

T1 sequence (P19429 2-210 limits assumed): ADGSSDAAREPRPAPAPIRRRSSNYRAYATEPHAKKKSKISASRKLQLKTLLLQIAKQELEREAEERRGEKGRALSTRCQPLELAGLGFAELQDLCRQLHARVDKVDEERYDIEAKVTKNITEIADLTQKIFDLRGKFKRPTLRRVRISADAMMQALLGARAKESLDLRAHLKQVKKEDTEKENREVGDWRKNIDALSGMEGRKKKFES

B1: Mutation 1-23 (antibody, V domains shown)
VH: EVQLQQSGPELVKPGASVKMSCKASGYTFTLYVIHWVKQKPGQGLEWIGYIYPYIDGTKYNEKFKGKATLTVDKSSSTAFMELSSLTSEDSAVYYCARSGYGGYGLAWLAYWGQGTLVTVSA
VL: QAVVIQESALTTSPGETVTLTCRSSTGAVTTSNYANWVQEKPDHLFTGLIGGSQNRAPGVPARFSGSLIGDKAALTITGAQTEDEAIYFCALVYSNHWVFGGGTKLTVLG
notes: Built as m8
Kd: 8.49 nM | koff: 0.000353 s⁻¹ | kon: 41600 M⁻¹ s⁻¹

B2: Mutation 1-17 (antibody, V domains shown)
VH: B1 VH with Y52N, I55L
VL: B1 VL with V29A, H97Q
notes: Built as m8
Kd: 7.37 nM | koff: 0.000237 s⁻¹ | kon: 32100 M⁻¹ s⁻¹

B3: Mutation 1-11 (antibody, V domains shown)
VH: B1 VH with Y52N
VL: B1 VL with H97N
notes: Built as m8
Kd: 4.23 nM | koff: 0.000142 s⁻¹ | kon: 33500 M⁻¹ s⁻¹

B10: Mutation 1-27 (antibody, V domains shown)
VH: B1 VH with I34V, I55L, G103Q
VL: B1 VL
notes: Built as m8
Kd: 0.353 nM | koff: 7.31e-06 s⁻¹ | kon: 20700 M⁻¹ s⁻¹

B11: Mutation 1-30 (antibody, V domains shown)
VH: B1 VH with L31I, I34V, Y52Q, I55L, G103Q
VL: B1 VL with V29A, N33Q, Q54N, H97Q
notes: Built as m8
Kd: 3.71 nM | koff: 0.00022 s⁻¹ | kon: 59500 M⁻¹ s⁻¹

B12: Mutation 1-50 (antibody, V domains shown)
VH: B1 VH with L31I
VL: B1 VL with V29A, N33Q
Kd: 4.61 nM | koff: 0.000233 s⁻¹ | kon: 50500 M⁻¹ s⁻¹

B16: Mutation 1-55 (antibody, V domains shown)
VH: B1 VH with L31I, I34V
VL: B1 VL with N33Q, H97N
notes: Built as m8
Kd: 4.31 nM | koff: 0.000239 s⁻¹ | kon: 55400 M⁻¹ s⁻¹

B17: Mutation 1-40 (antibody, V domains shown)
VH: B1 VH with L31I, I34L, Y52Q, I55L, G103N
VL: B1 VL with Q54N, H97N
notes: Built as m8
Kd: 1.85 nM | koff: 4.05e-05 s⁻¹ | kon: 21900 M⁻¹ s⁻¹

B18: Mutation 1-32 (antibody, V domains shown)
VH: B1 VH with L31I, Y52N, I55L
VL: B1 VL with V29A, Q54N
notes: Built as m8
Kd: 0.765 nM | koff: 5.3e-05 s⁻¹ | kon: 69300 M⁻¹ s⁻¹

B23: Mutation 1-43 (antibody, V domains shown)
VH: B1 VH with L31I, I34L, G103N
VL: B1 VL with V29A, N33Q, H97Q
notes: Built as m8
Kd: 0.464 nM | koff: 3.38e-05 s⁻¹ | kon: 72900 M⁻¹ s⁻¹

B25: Mutation 1-53 (antibody, V domains shown)
VH: B1 VH with L31I, I34V
VL: B1 VL with H97Q
notes: Built as m8
Kd: 8.38 nM | koff: 0.000543 s⁻¹ | kon: 64800 M⁻¹ s⁻¹

B26: Mutation 1-45 (antibody, V domains shown)
VH: B1 VH with I34V, Y52Q, I55L, G103Q
VL: B1 VL with N33Q, H97Q
notes: Built as m8
Kd: 7.41 nM | koff: 0.000286 s⁻¹ | kon: 38600 M⁻¹ s⁻¹

B28: Mutation 1-44 (antibody, V domains shown)
VH: B1 VH with L31I, Y52Q
VL: B1 VL with V29A, Q54N, H97N
notes: Built as m8
Kd: 6.56 nM | koff: 0.000205 s⁻¹ | kon: 31300 M⁻¹ s⁻¹

B29: Mutation 1-34 (antibody, V domains shown)
VH: B1 VH with I34L, Y52Q, G103N
VL: B1 VL with V29A, Q54N
notes: Built as m8
Kd: 3.41 nM | koff: 0.000198 s⁻¹ | kon: 58000 M⁻¹ s⁻¹

B30: Mutation 1-42 (antibody, V domains shown)
VH: B1 VH with I34V, Y52N, I55L, G103Q
VL: B1 VL with Q54N
notes: Built as m8
Kd: 0.821 nM | koff: 6.8e-05 s⁻¹ | kon: 82800 M⁻¹ s⁻¹

B31: Mutation 1-54 (antibody, V domains shown)
VH: B1 VH with L31I, I34V, Y52N, I55L, G103Q
VL: B1 VL with V29A, Q54N, H97Q
notes: Built as m8
Kd: 7.78 nM | koff: 0.000321 s⁻¹ | kon: 41300 M⁻¹ s⁻¹

B32: Mutation 1-47 (antibody, V domains shown)
VH: B1 VH with Y52N, I55L
VL: B1 VL with V29A, N33Q
notes: Built as m8
Kd: 3.05 nM | koff: 0.000196 s⁻¹ | kon: 64100 M⁻¹ s⁻¹

B34: Mutation 1-26 (antibody, V domains shown)
VH: B1 VH with L31I, I55L
VL: B1 VL with N33Q, Q54N, H97Q
notes: Built as m8
Kd: 0.465 nM | koff: 1.85e-05 s⁻¹ | kon: 39800 M⁻¹ s⁻¹

B36: Mutation 1-39 (antibody, V domains shown)
VH: B1 VH with I34V, Y52Q, I55L, G103Q
VL: B1 VL with H97Q
notes: Built as m8
Kd: 1.08 nM | koff: 4.72e-05 s⁻¹ | kon: 43600 M⁻¹ s⁻¹

The remaining binders from weak to strong by Kd, led by results:

Kd: 9.41 nM | koff: 0.00034 s⁻¹ | kon: 36100 M⁻¹ s⁻¹
B27: Mutation 1-31 (antibody, V domains shown)
VH: B1 VH with L31I, I34L, Y52N, G103N
VL: B1 VL with V29A, N33Q, H97N
notes: Built as m8

Kd: 7.95 nM | koff: 0.000331 s⁻¹ | kon: 41700 M⁻¹ s⁻¹
B14: Mutation 1-33 (antibody, V domains shown)
VH: B1 VH with I34V
VL: B1 VL with V29A, N33Q, H97N
notes: Built as m8

Kd: 7.89 nM | koff: 0.000647 s⁻¹ | kon: 82000 M⁻¹ s⁻¹
B4: Mutation 1-41 (antibody, V domains shown)
VH: B1 VH with Y52N, G103N
VL: B1 VL with H97Q
notes: Built as m8

Kd: 7.3 nM | koff: 0.000223 s⁻¹ | kon: 30500 M⁻¹ s⁻¹
B19: Mutation 1-51 (antibody, V domains shown)
VH: B1 VH with L31I, I34V, Y52Q, G103Q
VL: B1 VL with V29A, N33Q, Q54N
notes: Built as m8

Kd: 6.6 nM | koff: 0.00053 s⁻¹ | kon: 80300 M⁻¹ s⁻¹
B33: Mutation 1-25 (antibody, V domains shown)
VH: B1 VH with L31I, I34L, I55L, G103N
VL: B1 VL with V29A
notes: Built as m8

Kd: 6.01 nM | koff: 0.000492 s⁻¹ | kon: 81800 M⁻¹ s⁻¹
B15: Mutation 1-52 (antibody, V domains shown)
VH: B1 VH with L31I, I34V, Y52N, I55L, G103N
VL: B1 VL with V29A, N33Q, Q54N, H97N
notes: Built as m8

Kd: 5.41 nM | koff: 0.000217 s⁻¹ | kon: 40100 M⁻¹ s⁻¹
B7: Mutation 1-46 (antibody, V domains shown)
VH: B1 VH with L31I, I34L, Y52N, G103N
VL: B1 VL with Q54N, H97N
notes: Built as m8

Kd: 5.21 nM | koff: 0.000208 s⁻¹ | kon: 39900 M⁻¹ s⁻¹
B24: Mutation 1-37 (antibody, V domains shown)
VH: B1 VH with L31I, I34L, Y52N, I55L, G103N
VL: B1 VL with N33Q, H97Q
notes: Built as m8

Kd: 4.81 nM | koff: 0.000274 s⁻¹ | kon: 57000 M⁻¹ s⁻¹
B5: Mutation 1-19 (antibody, V domains shown)
VH: B1 VH with L31I, I34L, Y52N, I55L, G103N
VL: B1 VL with H97Q
notes: Built as m8

Kd: 3.8 nM | koff: 0.000207 s⁻¹ | kon: 54500 M⁻¹ s⁻¹
B35: Mutation 1-29 (antibody, V domains shown)
VH: B1 VH with Y52Q
VL: B1 VL with V29A, N33Q, H97N
notes: Built as m8

Kd: 3.29 nM | koff: 0.000118 s⁻¹ | kon: 36000 M⁻¹ s⁻¹
B8: Mutation 1-36 (antibody, V domains shown)
VH: B1 VH with L31I, I34V, Y52N, G103Q
VL: B1 VL with N33Q, Q54N
notes: Built as m8; CDR-VL1 cell printed 'VQ', read as V/Q

Kd: 1.76 nM | koff: 0.000158 s⁻¹ | kon: 89600 M⁻¹ s⁻¹
B20: Mutation 1-28 (antibody, V domains shown)
VH: B1 VH with I34L, I55L, G103N
VL: B1 VL with V29A, N33Q, Q54N, H97Q
notes: Built as m8

Kd: 1.51 nM | koff: 0.000134 s⁻¹ | kon: 88400 M⁻¹ s⁻¹
B6: Mutation 1-49 (antibody, V domains shown)
VH: B1 VH with I34L, Y52N, I55L, G103N
VL: B1 VL with N33Q, H97N
notes: Built as m8

Kd: 0.832 nM | koff: 4.31e-05 s⁻¹ | kon: 51800 M⁻¹ s⁻¹
B22: Mutation 1-35 (antibody, V domains shown)
VH: B1 VH with Y52Q, I55L
VL: B1 VL with V29A, H97Q
notes: Built as m8

Kd: 0.63 nM | koff: 3.62e-05 s⁻¹ | kon: 57400 M⁻¹ s⁻¹
B21: Mutation 1-24 (antibody, V domains shown)
VH: B1 VH with L31I, I34V, I55L, G103Q
VL: B1 VL with V29A, N33Q, Q54N, H97N
notes: Built as m8

Kd: 0.553 nM | koff: 4.32e-05 s⁻¹ | kon: 78200 M⁻¹ s⁻¹
B9: Mutation 1-48 (antibody, V domains shown)
VH: B1 VH with L31I, I34V, G103Q
VL: B1 VL with V29A, Q54N, H97Q
notes: Built as m8

Kd: 0.254 nM | koff: 1.72e-05 s⁻¹ | kon: 67700 M⁻¹ s⁻¹
B13: Mutation 1-38 (antibody, V domains shown)
VH: B1 VH with L31I
VL: B1 VL with N33Q, Q54N, H97N
notes: Built as m8
